This is an account of results in the DeepSol protein solubility set.

The data set is described as follows: soluble on expression in E. coli; label from the status in PepcDB or PDB records.
On to “MSLSLLSKFSRGVPSPALAHIAKRTFSSVNFSQILRRPQNSSLRLRLVRNISNSNPLPKMTEAGKNIVLKRHDLIVKGAQDAREYRGLELTNGIRVLLVSDPTTDKSAAALDVKVGHLMDPWELPGLAHFCEHMLFLGTAKYPSENEYSKFLAAHAGSSNAYTSSDHTNYHFDVKPDQLPGALDRFVQFFLSPQFTESATEREVCAVDSEHSNNLNNDLWRFLQVDRSRSKPGHDYGKFGTGNKQTLLEDARKKGIEPRDALLQFHKKWYSSDIMTCCIVGKEPLNVLESYLGTLEFDAIENKKVERKVWEEFPYGPDQLAKRIDVVPIKDTRLVSISFPFPDLNGEFLSQPGHYISHLIGHEGPGSLLSELKRLGWVSSLQSDSHTQAAGFGVYNVTMDLSTEGLEHVDEIIQLMFNYIGMLQSAGPKQWVHDELAELSAVKFRFKDKEQPMTMAINVAASLQYIPFEHILSSRYLLTKYEPERIKELLSMLSPANMQVRVVSQKFKGQEGNTNEPVYGTEMKVTDISPETMKKYENALKTSHHALHLPEKNEYIATNFDQKPRESVKNEHPRLISDDGWSRVWFKQDDEYNMPKQETKLALTTPMVAQNPRMSLLSSLWLWCLSDTLAEETYNADLAGLKCQLESSPFGVQMRVSNRREAERHASLTLHVYGYDEKQALFAKHLANRMTNFKIDKTRFDVLFESLKRALTNHAFSQPYLLTQHYNQLLIVDKVWSKEQLLAVCDSVTLEDVQGFAKEMLQAFHMELFVHGNSTEKEAIQLSKELMDVLKSAAPNSRPLYRNEHNPRRELQLNNGDEYVYRHLQKTHDVGCVEVTYQIGVQNTYDNAVVGLIDQLIREPAFNTLRTNEALGYIVWTGSRLNCGTVALNVIVQGPKSVDHVLERIEVFLESVRKEIAEMPQEEFDNQVSGMIARLEEKPKTLSSRFRRFWNEIECRQYNFARREEEVALLKTIKKDDVLELFDKKIRKDAAERRKLAVFVHGKNEDQEAVNTIIKKNAESGKKEKEVLYSDQLRQFLPLYGRPIAAIDLKPIGVDPLEHQETTKSKY”, for which the “soluble on expression in E. coli” value is on record as “not soluble”.

With “MGSDKIHHHHHHMTHPDGLFYQLIQDLAQGKGLPHLIWRLSQILNRPVLLTNSVHRVLVFHDPHHLNLDLDEFLYVPPVKLDEADFLNRSEHSLHHGQLTLNGQVFPFVYLPLLAGDYCLGYIFVLETYPLADSLKPKSLSAEDKETIFEASMPLLLCLKNSSEVSLRQEQYRDDFIRDILYNNYDSKAAIHEKAKSWGWNLQGSLLALVIDLPDRDFKTAREILPRLFNHSSPISAYINLQLVIILNINGLKKVKLKTALNNFINSFLDRLADHGKDRSSIGIGIGSGVPSITDLYKSYQEAKVAWELGKVFDHKSVCYFEEMGFLKFIFTQPARELEEFSQRVLGPLLEYDQAENTGLLDSLRVFIEYKCQIAECSKALYVHENTLRNRIKKIEQVTGFDLRRVDHMVNVYIALQVLNLGKDD”, the “soluble on expression in E. coli” value is on record as “not soluble”. With “MVVSSKMDIFNELESQVRSYSRSFPTIFTKSKGYKLWDVDGKEYIDFFSGAGALNYGHNDDKMKQVLIDYLLEDGIIHSLDMGTSAKVNFLKHFNKIILEPRDLNYKIMFPGPTGTNSVESALKIARKVTGRTNIISFSNAFHGMSLGSLSITSNHFKRKGAGVPLNNSIIMPYENYLDSLNSLSYLEKVLGDSGSGVALPAAIILETVQGEGGLNTASSQWLKGIDRLCKKYNILLIVDDIQAGCGRTGTFFSFEPASIKPDIICLSKSISGIGLPMAITLIKPEYDKWEPGEHNGTFRGNNLAFLAATEALSYWKDIEFINALKWKSEKITSFLNEICLKYPQLQGEVRGRGFMQGIACNTFGIAKKICSVAFENGLIIETSGPNDEVIKLLPSLTIDLEGLSKGLEMLEDSISTILKEVTH”, the “soluble on expression in E. coli” value is given as “not soluble”. Turning to “MLGNIAEISNPNERRQAVKALVSAVKSDEDDSVRAAATDALYQRGEDAFDYLVAELAEMGGSEATERTATTLLTEWLSADHLEFRMVAATALGERGATAAVPDLVRALTDPAPRVRTRAAQACGRLSDPRVVPPLSERLSDGRQQVREAAANALGAIGTDRALAELVPVTQADEEGLRLIAVDELGQFGSVKPVVVLVDALDDDSTTVQRAAMLSLLELLTTASTEELELIRGTVVDELARADVQATVPALLDIAADGTRRRYRQTAIWLLSRITGDRYRSEVIDCLLSTLDKPDEETAQLAEAVLPELRSPELEKRLRVYLSRERGSEEARSRAQAVLDEICDGSSGELVTTGVDYTYVDSPADYTNQHSSRD”, the “soluble on expression in E. coli” value is “not soluble”. As for “DEDDSADNIHAVSSERWRIHAATEIEDINTFFGTEYSSEEADTIGGLVIQELGHLPVRGEKVLIGGLQFTVARADNRRLHTLMATRVK”, the “soluble on expression in E. coli” value is “soluble”.

For “AVSFTGVSGVKNIVAVTACPTGVAHTFMSAEAIEAYAKKQGWNVKVETRGQVGAGNEITVEEVAAADLVFVAADIDVPLDKFKGKPMYRTSTGLALKKTEQEFDKAFKEAKIF”, the “soluble on expression in E. coli” value is “not soluble”. Consider “MNQEKIADLKNWMHQEKIDFTYISDPGHIAYFSGYESEPHERVLALFIAADDQSFLFTPALEVEDAEKSSWTYPVYGYLDSENPWEKIAALLNKRTQGTPRFALEKQALSLARFDQLKTYFPASDFSHDVTPLIEKLQLIKTEPEIQRLLEAGSWADVAFEIGFKAIQAGVAEQEIVAEIEYQLKRQGIRSMSFDTLVLTGKNGASPHGVPGETKIEPHDLVLFDLGVVHNGYCSDATRTVSYLEPSDFQKEIYGIVLEAQLAATEAVKPGVTAGELDDIARGVITKAGYGEYFNHRLGHGIGTTVHEYPSLVHGNDLVIEEGMCFSIEPGIYIPGKVGVRIEDCLHVTKTGSEPFTKTTKELQIIQ”, for which the “soluble on expression in E. coli” value is listed as “not soluble”. Regarding “MAHHHHHHMCSVPISCSSTHTHTPHSLIVMSAPKKVALVTGANRGIGFATARRLGELGFKVLLGARDAKRGEEAVDTLRNDKLDVDLLLMTPTEHTSVEAAVQKVEADYKRLDVLINNAALMDFDNKVFPLNIQRMRDEFEINFFATVDITNSFLPLMLRSSEAPRLVFVSTPLGTHETVDRPQNKYAHPNLTAYKCTKSAVNMYAHNLAKYLENYAEEAGGSAASAKVNCCYPGYVQTDMCFNSTEAHFTPYEGAETSVWLATLPADGPTGGFYHRAQKLPW”, the “soluble on expression in E. coli” value was “soluble”. Take “MFFIHKLFPAKLIRRYKRFLADVKREDQHIFTVSVPNTGSMLGLTTPNSNIWLSYHNNPKRRYAYQLEIVEANNTLVGINTTLPNKLALEAIQNNLLPELNGYKTILKEQRYGIQSRIDFLLRDDILPDCYLEIKNVHFIRQKGLAEFPDTETKRGTRHLEELIKIVQQGKRAVMLYIIQREDCSAFTICRDLDPTYGRKFDLALESGVEFYAIKCQVSVEGIFPIQQVKIENRK”: the “soluble on expression in E. coli” value is given as “not soluble”. In the case of “GHMSTPLTLIATITAAPGHAEALERELRALVAPSRAEAGCLQYDLHQDRHDSHLFYMIEQWRDDAALERHQNTEHFLRFSRGNEALLQNVKIDQLYRLA”, the “soluble on expression in E. coli” value is listed as “soluble”.

For the sequence “SANTSFLLRKKIFAKLMRITTPSHDHYGSSTLLVRLTNDVYLMEVIAFDFL”, the “soluble on expression in E. coli” value was “not soluble”.

Regarding “MKIPIPSIGHVALLASAILFASSANAASDEDGIIIYNAQHESFAKSWAEGFTKDTGIKVTLRNGKDSELGNQLIQEGSSSPADVFLTENSPAMVLVDNAKLFAPLDAATQAQVAKEYRPEDGRWTGIAARSTVFVYNPAKISEAELPKSLMDLAKPEWKGRWAASPSGADFQAIVSAMLALKGEQATLEWLKAMKTNATAYKGNSTVMKAVNAGQIDGGVIYHYYPFVDQAKTGENSGNIKLHYFKNKDPGAFVSISGAGVLASSKHPQQAQKFVQWVTGKAGQDFLRESNSAFEYAVGVNAASNPKLVPLKDLDPPKVEVSKLNSKKVVELMTEAGLL”, the “soluble on expression in E. coli” value was “not soluble”. For “AIAVGHKYPVKCLEVDKSKGRLVVSHRRAMAERQMEHLKTGALVEGTVQGVKPYGVFVDVFGTSGLLHISQISHDQVANIQSLFLPGEKVKCMVVSFDKQRGRISLSTKALEPHPGDMLRNKQLVYEKAEEMALSYNQRMDSPVRSKNTTSSSTDDIIAGLDIGSLDDLDPILFGTHTNSSNSNTHSDHLKQDSMNGTIPESDI” the value was “soluble”.

Take “MGSDKIHHHHHHMDTDLLKTFLEVSRTRHFGKAAENLYLTRSAVSFRVKQLESILGVALFERQRNNIQPTPAGERMLGHAEAVLTAWERAKQDVSLSQLQSTQLAIGAGPNIWDAYLQGYLQGLHVGLPGVALRTEVLPANAMTRQLMDRTLDIAISFDPPKLDQFELVQLGQINLLLVSSLKGQTGTAVLPGQYVKVDWGTAFNIVHAQEYASLPVPTLHTSSARIALDFILNNGGCAFLPEHLVQHALHSGELHHVSGASAISRNVYVAYWAENDRLAQIKQAIDFLRDDGSVFAHATI”: the “soluble on expression in E. coli” value is listed as “not soluble”. As to “MINMKPQYYLGMMSGTSLDGVDIVLVDFSQDPQLILSDFFPMPEDLREKLTTLIQVGETTLQNLGELDHKLALLYSDCVNAFLQKNTFLPNQIQAIGCHGQTVWHSPNSQFPFTMQLGDMNLLAAKTGISVIGDFRRKDMAWGGQGAPLVPAFHEAVFSNSNFATAVLNIGGISNVSILFPNQAVIGFDTGPGNTLLDQWIEKHQGLRYDENGEWAAKGNVNKVLLDELLNEPFFSLPAPKSTGRELFNLVWLNHKIAKIREKLTALSVEMSFRPEDVQATLVELTVTSIVNALNQLQTDLPKRLLVCGGGAKNSLIMRGLHDNLLDWQVSTTTEQGFDIDYVEAAAFAWLAYCRINNLPANLPSVTGAKSAVSLGAIFPKD”, the “soluble on expression in E. coli” value was “not soluble”.

Turning to “IEIRSVVYQIEGQPYESRLVYDSSATALQPGLLMAPNWMGVSRGAEDIARAVAAKGYVVLLADLYGQQLRPSNNDEAGAAMTPLKNDRGLLRKRMQAGLDQLLSQADVSLDVSRIATFGFCFGGCCSLELARTGAELKAAISFHGTLDTPNPADASNIKGSVLVLHGASDPLVPKEQLPAFEEEMNAAGVDWQLHSHGGAFHSFTDPHANVPGMMMYDAKVSARAFKSMHDLLKEVFG”, the “soluble on expression in E. coli” value is on record as “not soluble”. Regarding “MASGQDKTHIDYAYELDITVKPDSRVPVFNREFATFTGAGVPLFSLGGGPIRYALAEVLAKFHARRGYYVVETPIIASTELFKVSGHIEFYRNNMYLFDIEGHEFAVKPMNCPYHILLFLNEVAKHRSKLPLPFKVFEFGRVHRYEPSGSIYGLLRVRGFTQDDAHIIVPGGRVIDVVYDVFEEMKLVLERLFKLGVSSETFKVRLSMSDKSLIGKEFMGSKEEWEGAEEALREAASRINEKYGIDIVELEGEAAFYGPKLDFIMMVEESGVSKEWQMGTIQFDFNLPRRFRLYDVVREEFGIEEVYIIHRALLGSIERFLGVYLEHRRGRMPFTLAPIQFAVIAVKTGGEVDREIEDLASSIAKGLLDKGFRVAVKGSSKTGLSSDVRHIESTAKPAVNVFIGAKEVREKVLDVRVFDLESMKRRRLAIAYGDAADAVENLAAVAEELESPVRSLSGQAPRIPADFSFML”, the “soluble on expression in E. coli” value is reported as “soluble”. As to “MSSTLRFHVLGRGAALPRAVAPYFVLRTDNWDDFGHRVQFHLILIVSGAPEKRIGSLKVLQRTSDKGEAMMVATDTELPSKFVELDDTFVSLGQDDDFYKKLHEALGDRAGEVLDALRDIAWRPAFASDFEPTPAFRNAMMRENGAQRARRFGRAWALGEQITERPAFDYVGTIEGADIKVEGEFDFSATDPVPGRIVGLIGRNAVGKTRYLASLGSDLAQISRRSAEALEAREARFPGGRPLFTRIIAISYSAFDRFKRPPMDSSSSYVYCGIRNDRGGLSRSALIDRYRLNQVRIRERGEQRSWMRHMKTILGDQGAQLTASLEEEIRSDSTDDSALSSLSSGQSILAHFVTALLAWIQPNSLVLFDEPETHLHPNAVASLFLVLSQVLQEFDSYAVIATHSPVVIQEIPAKRVLVFRREGNVTIAEPLLLESFGESVTELTRHVFETGEVESLYKRTLRELAAEDTVEDVLARFELGLSLSAQAYLLAQYSKKAGGRTLEHHHHHH”, the “soluble on expression in E. coli” value is reported as “not soluble”. Consider “GTVEGVVGVTREVTEQRKHEMEIARQRSILKAQQEAVIDGILVVDEDDTIVSYNERFVDMWDIPRDIVERGDEEIALEWAMEQVAEPEAFRVDVEALYEDPETTARDELELADGRVFDRYTAPVVAEDGTRFGRLWAFRD”, for which the “soluble on expression in E. coli” value is “not soluble”.
